Assay results reported in paper PMC6239180.

What was measured:
[1] = molecular target: hPcf11 (CF II subunit);hClp1 (CF II subunit or alone) (human;human) (UniProt O94913+Q92989); experiment: filter binding
[2] = molecular target: T1, hClp1 (CF II subunit or alone) (human) (UniProt Q92989); experiment: filter binding
T1 sequence: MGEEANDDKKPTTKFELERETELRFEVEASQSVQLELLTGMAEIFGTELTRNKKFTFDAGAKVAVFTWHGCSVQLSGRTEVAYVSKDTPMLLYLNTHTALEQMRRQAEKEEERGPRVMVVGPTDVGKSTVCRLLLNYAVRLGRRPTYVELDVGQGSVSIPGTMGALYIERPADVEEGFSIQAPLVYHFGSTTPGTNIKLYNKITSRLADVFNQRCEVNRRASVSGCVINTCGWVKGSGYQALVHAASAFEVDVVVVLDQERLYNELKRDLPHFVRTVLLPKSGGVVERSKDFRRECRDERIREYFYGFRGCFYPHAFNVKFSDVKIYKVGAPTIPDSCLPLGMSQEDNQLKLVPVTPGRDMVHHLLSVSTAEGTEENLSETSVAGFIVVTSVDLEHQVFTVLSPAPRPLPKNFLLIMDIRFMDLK

Chain of hPcf11 (CF II subunit);hClp1 (CF II subunit or alone) (human;human) (O94913 whole entry, one chain of several): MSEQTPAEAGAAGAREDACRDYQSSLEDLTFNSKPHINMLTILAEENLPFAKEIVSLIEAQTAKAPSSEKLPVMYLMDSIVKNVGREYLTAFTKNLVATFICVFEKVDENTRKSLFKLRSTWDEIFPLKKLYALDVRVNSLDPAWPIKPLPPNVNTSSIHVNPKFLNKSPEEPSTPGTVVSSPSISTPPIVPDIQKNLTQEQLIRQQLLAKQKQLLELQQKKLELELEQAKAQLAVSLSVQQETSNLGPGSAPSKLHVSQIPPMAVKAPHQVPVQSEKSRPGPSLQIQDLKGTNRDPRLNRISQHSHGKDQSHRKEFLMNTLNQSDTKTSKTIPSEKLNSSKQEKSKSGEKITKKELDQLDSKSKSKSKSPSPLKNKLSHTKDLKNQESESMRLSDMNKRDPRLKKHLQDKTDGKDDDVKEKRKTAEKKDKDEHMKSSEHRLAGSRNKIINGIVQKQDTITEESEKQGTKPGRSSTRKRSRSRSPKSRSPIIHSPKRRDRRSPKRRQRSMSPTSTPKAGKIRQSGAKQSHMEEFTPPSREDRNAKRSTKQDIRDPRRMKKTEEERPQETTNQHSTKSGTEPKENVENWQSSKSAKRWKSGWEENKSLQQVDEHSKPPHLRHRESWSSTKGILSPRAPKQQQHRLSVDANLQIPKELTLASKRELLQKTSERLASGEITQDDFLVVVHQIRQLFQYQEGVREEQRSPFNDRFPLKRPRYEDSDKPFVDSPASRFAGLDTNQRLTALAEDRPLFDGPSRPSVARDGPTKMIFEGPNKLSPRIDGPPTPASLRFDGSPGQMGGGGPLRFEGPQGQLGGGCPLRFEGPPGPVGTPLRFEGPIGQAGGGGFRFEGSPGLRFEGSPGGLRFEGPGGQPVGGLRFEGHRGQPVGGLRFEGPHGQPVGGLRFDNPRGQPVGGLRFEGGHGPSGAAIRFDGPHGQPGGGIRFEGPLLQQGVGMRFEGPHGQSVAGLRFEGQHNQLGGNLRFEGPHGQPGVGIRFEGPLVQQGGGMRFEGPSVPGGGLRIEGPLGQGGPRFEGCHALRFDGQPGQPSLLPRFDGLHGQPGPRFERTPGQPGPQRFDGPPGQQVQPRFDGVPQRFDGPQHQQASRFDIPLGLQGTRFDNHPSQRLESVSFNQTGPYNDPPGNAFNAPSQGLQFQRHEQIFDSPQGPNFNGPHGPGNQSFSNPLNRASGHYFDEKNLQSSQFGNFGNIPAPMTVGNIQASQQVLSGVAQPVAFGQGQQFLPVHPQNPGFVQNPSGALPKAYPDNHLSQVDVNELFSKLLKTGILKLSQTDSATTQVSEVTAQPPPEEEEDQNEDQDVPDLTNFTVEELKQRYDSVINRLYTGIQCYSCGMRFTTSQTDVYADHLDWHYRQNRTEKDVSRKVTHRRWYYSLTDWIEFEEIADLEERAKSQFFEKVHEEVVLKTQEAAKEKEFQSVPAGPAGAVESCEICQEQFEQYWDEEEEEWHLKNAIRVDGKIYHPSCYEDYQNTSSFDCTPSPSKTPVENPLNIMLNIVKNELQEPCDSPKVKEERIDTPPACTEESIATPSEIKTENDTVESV

Substance | K half [1] [nM] | K half [2] [nM]
L3 RNA | 0.9 | –
SV40 late RNA | 0.4 | 140
